ELISA data data for 41 molecules are collected here from US20200377590A1 (Hoffmann-La Roche, published 2020).

Numbering of substitutions follows the chain as printed.

The experiment addresses T1, CD81 (UniProt P60033 1-236, limits assumed).
T1 construct: whole, on cells; also called CD81 receptor
T1 sequence (looked up): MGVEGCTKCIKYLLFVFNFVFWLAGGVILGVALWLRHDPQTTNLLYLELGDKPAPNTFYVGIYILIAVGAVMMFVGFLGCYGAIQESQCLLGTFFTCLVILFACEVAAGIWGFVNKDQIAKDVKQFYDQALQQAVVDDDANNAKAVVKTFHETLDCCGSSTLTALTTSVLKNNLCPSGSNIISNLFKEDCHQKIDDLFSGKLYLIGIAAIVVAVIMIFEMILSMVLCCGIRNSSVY
As to the kind of experiment: cell ELISA.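 Further: antibody binding to HuH7 cells expressing CD81 versus a CD81-negative HuH7 control line, bound antibody detected by secondary reagent, absorbance at 450 nm with 620 nm reference.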 In general terms: An ELISA detects its analyte on a solid surface through an enzyme-linked reagent.

Description: For the binding cell ELISA assay, HuH7-Rluc-H3 (positive cell line expressing CD81) and HuH7-Rluc-L1 (negative control cell line) were propagated in F-12 DMEM medium with 10% FCS at 37° C. and 5% CO₂. On day 1, the cells were trypsinized at approximately 90% confluence and resuspended at 4×10⁵ cells/mL. […] On day 2, the antibody samples to be tested were prepared in a separate polypropylene round bottom plate with a twofold desired concentration with a final volume of 120 μl. All of the assay samples were diluted in cell culture medium. […] After fixation, each well was washed 3 times with 200 μL PBS/0.05% Tween. The secondary incubation step for detection of bound anti-CD81 antibodies was performed for 2 h at room temperature on a reciprocal shaker. […] Each well was washed three times with 200 μL PBS/0.05% Tween to remove unbound antibodies. […] The absorbance was read using the ELISA Tecan reader at 450 nm with 620 nm reference wavelength.

B1: CD81K04 HC K04_JA-13-hVH_1_3 / LC JA_GG-08-hVK_4_1 (antibody, V domains shown)
VH: QVQLVQSGAEVKKPGASVKVSCKASGYTFSSSWMNWVRQAPGQRLEWMGRIYSGDGDAIYNGKFKGRVTITRDTSASTAYMELSSLRSEDTAVYYCAREGKTGDLLLRSWGQGTLVTVSS
VL: DIVMTQSPDSLAVSLGERATINCKSSKSVSTSIYSYMHWYQQKPGQPPKLLIKYASYLESGVPDRFSGSGSGTDFTLTISSLQAEDVAVYYCEHSREFPFTFGQGTKLEIK
notes: human constant region
B1 yielded an ELISA data of 0.985.

B2: CD81K04 HC GG-02-hVH_1_69 / LC GG-05-hVK_3_11 (antibody, V domains shown)
VH: B1 VH with A16S, R44G, G62Q, K65Q, R72A, T74E, A76T
VL: EIVLTQSPATLSLSPGERATLSCRASKSVSTSIYSYLHWYQQKPGQAPRLLIYYASNRETGIPARFSGSGSGTDFTLTISSLEPEDFAVYYCQHSREFPFTFGQGTKLEIK
notes: human constant region
As for B2, the ELISA data was 0.229.

B3: CD81K04 HC GG-02-hVH_1_69 / LC JA_GG-07-hVK_7_3 (antibody, V domains shown)
VH: B1 VH with A16S, R44G, G62Q, K65Q, R72A, T74E, A76T
VL: DIVLTQSPASLAVSPGQRATITCRASKSVSTSIYSYMHWYQQKPGQPPKLLIKYASNKDTGVPARFSGSGSGTDFTLTINPVEANDAANYYCLHSREFPYTFGQGTKLEIK
notes: human constant region
Take B3: the ELISA data came to 0.13.

B4: CD81K04 HC GG-02-hVH_1_69 / LC GG-06-hVK_1_39 (antibody, V domains shown)
VH: B1 VH with A16S, R44G, G62Q, K65Q, R72A, T74E, A76T
VL: DIQMTQSPSSLSASVGDRVTITCRASKSVSTSIYSYLNWYQQKPGKAPKLLIYYASYLQSGVPSRFSGSGSGTDFTLTISSLQPEDFATYYCQHSREFPYTFGQGTKLEIK
notes: human constant region
With B4, the ELISA data was 0.08.

B5: CD81K04 HC GG-02-hVH_1_69 / LC CD81K04 (antibody, V domains shown)
VH: B1 VH with A16S, R44G, G62Q, K65Q, R72A, T74E, A76T
VL: DIVLTQSPASLSVSLGQRATISCRASKSVSTSIYSYMHWYQQKPGQPPKLLIKYASYLESGVPARFSGSGSGTDFTLNIHPVEEEDAATYYCEHSREFPFTFGTGTKLEIK
notes: human constant region
For the molecule B5, the ELISA data is 0.918.

B6: CD81K04 HC JA_GG-15-hVH_1_3 / LC JA_GG-07-hVK_7_3 (antibody, V domains shown)
VH: B1 VH with R72A
VL: B3 VL
notes: human constant region
Regarding B6, the ELISA data came out at 0.262.

B7: CD81K04 HC JA_GG-13-hVH_1_69 / LC GG-06-hVK_1_39 (antibody, V domains shown)
VH: B1 VH with A16S, Y27G, R44G, N61A, G62Q, K65Q, R72A, T74E, A76T
VL: B4 VL
notes: human constant region
B7 showed an ELISA data of 0.119.

B8: CD81K04 HC JA_GG-14-hVH_1_69 / LC GG-06-hVK_1_39 (antibody, V domains shown)
VH: B1 VH with A16S, R44G, R67K, V68A, R72A, T74E, A76T
VL: B4 VL
notes: human constant region
Regarding B8, the ELISA data was found to be 0.091.

B9: CD81K04 HC K04_JA_GG-17-hVH_1_3 / LC JA_GG-09-hVK_4_1 (antibody, V domains shown)
VH: B1 VH with A58T, N61S, G62Q, K65Q, R72A
VL: B1 VL with Y57T, L58R
notes: human constant region
B9 yielded an ELISA data of 0.911.

B10: CD81K04 HC JA_GG-14-hVH_1_69-GA / LC GG-05-hVK_3_11 (antibody, V domains shown)
VH: B1 VH with A16S, R44G, R67K, V68A, R72A, T74E, A76T
VL: B2 VL
notes: human constant region
Regarding B10, the ELISA data is 0.376.

B11: CD81K04 HC GG-04-hVH_1_69 / LC JA_GG-07-hVK_7_3 (antibody, V domains shown)
VH: B1 VH with A16S, R44G, G62Q, K65Q, V68A, R72A, T74E, A76T
VL: B3 VL
notes: human constant region
Regarding B11, the ELISA data is 0.12.

B12: CD81K04 HC JA_GG-13-hVH_1_69 / LC JA_GG-07-hVK_7_3 (antibody, V domains shown)
VH: B1 VH with A16S, Y27G, R44G, N61A, G62Q, K65Q, R72A, T74E, A76T
VL: B3 VL
notes: human constant region
Regarding B12, the ELISA data is 0.087.

B13: CD81K04 HC K04_JA_GG-17-hVH_1_3 / LC GG-06-hVK_1_39 (antibody, V domains shown)
VH: B1 VH with A58T, N61S, G62Q, K65Q, R72A
VL: B4 VL
notes: human constant region
For the molecule B13, the ELISA data came out at 0.123.

B14: CD81K04 HC K04_JA-13-hVH_1_3 / LC GG-06-hVK_1_39 (antibody, V domains shown)
VH: B1 VH
VL: B4 VL
notes: human constant region
In turn, B14 returned an ELISA data of 0.064.

B15: CD81K04 HC K04_JA-13-hVH_1_3 / LC GG-05-hVK_3_11 (antibody, V domains shown)
VH: B1 VH
VL: B2 VL
notes: human constant region
The molecule B15 displayed an ELISA data of 0.56.

B16: CD81K04 HC JA_GG-13-hVH_1_69 / LC GG-05-hVK_3_11 (antibody, V domains shown)
VH: B1 VH with A16S, Y27G, R44G, N61A, G62Q, K65Q, R72A, T74E, A76T
VL: B2 VL
notes: human constant region
With B16, the ELISA data was found to be 0.228.

B17: CD81K04 HC K04_JA_GG-17-hVH_1_3 / LC GG-04-hVK_4_1 (antibody, V domains shown)
VH: B1 VH with A58T, N61S, G62Q, K65Q, R72A
VL: B1 VL with M37L, H38A, K53Y, Y57T, L58R, E93Q, F100Y
notes: human constant region
The molecule B17 came in with an ELISA data of 0.189.

B18: CD81K04 HC GG-04-hVH_1_69 / LC GG-05-hVK_3_11 (antibody, V domains shown)
VH: B1 VH with A16S, R44G, G62Q, K65Q, V68A, R72A, T74E, A76T
VL: B2 VL
notes: human constant region
On to B18, for which the ELISA data amounted to 0.352.

B19: CD81K04 HC JA_GG-15-hVH_1_3 / LC GG-05-hVK_3_11 (antibody, V domains shown)
VH: B1 VH with R72A
VL: B2 VL
notes: human constant region
Regarding B19, the ELISA data is 0.699.

B20: CD81K04 HC K04_JA_GG-17-hVH_1_3 / LC JA_GG-07-hVK_7_3 (antibody, V domains shown)
VH: B1 VH with A58T, N61S, G62Q, K65Q, R72A
VL: B3 VL
notes: human constant region
B20: the ELISA data was 0.219.

B21: CD81K04 HC GG-03-hVH_1_69 / LC GG-05-hVK_3_11 (antibody, V domains shown)
VH: B1 VH with A16S, R44G, N61A, G62Q, K65Q, R72A, T74E, A76T
VL: B2 VL
notes: human constant region
As for B21, the ELISA data is 0.204.

B22: CD81K04 HC JA_GG-14-hVH_1_3 / LC GG-06-hVK_1_39 (antibody, V domains shown)
VH: B1 VH with R44G, V68A, R72A
VL: B4 VL
notes: human constant region
B22 gave an ELISA data of 0.091.

B23: CD81K04 HC K04_JA_GG-17-hVH_1_3 / LC JA_GG-08-hVK_4_1 (antibody, V domains shown)
VH: B1 VH with A58T, N61S, G62Q, K65Q, R72A
VL: B1 VL
notes: human constant region
With B23, the ELISA data is 0.941.

B24: CD81K04 HC GG-05-hVH_1_18 / LC GG-06-hVK_1_39 (antibody, V domains shown)
VH: B1 VH with R44G, N61A, G62Q, F64L, K65Q, I70M, R72T, A76T, S84R, E89D
VL: B4 VL
notes: human constant region
Molecule B24 had an ELISA data of 0.149.

B25: CD81K04 HC K04_JA_GG-17-hVH_1_3 / LC JA_GG-10-hVK_4_1 (antibody, V domains shown)
VH: B1 VH with A58T, N61S, G62Q, K65Q, R72A
VL: B1 VL with K24R, S25A
notes: human constant region
Molecule B25 registered an ELISA data of 0.855.

B26: CD81K04 HC JA_GG-14-hVH_1_69 / LC GG-05-hVK_3_11 (antibody, V domains shown)
VH: B1 VH with A16S, R44G, R67K, V68A, R72A, T74E, A76T
VL: B2 VL
notes: human constant region
With B26, the ELISA data stood at 0.403.

B27: CD81K04 HC K04_JA-13-hVH_1_3 / LC JA_GG-09-hVK_4_1 (antibody, V domains shown)
VH: B1 VH
VL: B1 VL with Y57T, L58R
notes: human constant region
B27 gave an ELISA data of 0.864.

B28: CD81K04 HC GG-04-hVH_1_69 / LC GG-06-hVK_1_39 (antibody, V domains shown)
VH: B1 VH with A16S, R44G, G62Q, K65Q, V68A, R72A, T74E, A76T
VL: B4 VL
notes: human constant region
B28 returned an ELISA data of 0.067.

B29: CD81K04 HC JA_GG-14-hVH_1_69-GA / LC GG-06-hVK_1_39 (antibody, V domains shown)
VH: B1 VH with A16S, R44G, R67K, V68A, R72A, T74E, A76T
VL: B4 VL
notes: human constant region
For B29, the ELISA data was 0.066.

B30: CD81K04 HC JA_GG-14-hVH_1_3 / LC GG-05-hVK_3_11 (antibody, V domains shown)
VH: B1 VH with R44G, V68A, R72A
VL: B2 VL
notes: human constant region
For the molecule B30, the ELISA data came out at 0.696.

B31: CD81K04 HC K04_JA-13-hVH_1_3 / LC JA_GG-07-hVK_7_3 (antibody, V domains shown)
VH: B1 VH
VL: B3 VL
notes: human constant region
In turn, B31 gave an ELISA data of 0.255.

B32: CD81K04 HC K04_JA-13-hVH_1_3 / LC JA_GG-10-hVK_4_1 (antibody, V domains shown)
VH: B1 VH
VL: B1 VL with K24R, S25A
notes: human constant region
Turning to B32, the ELISA data came out at 0.861.

B33: CD81K04 HC JA_GG-16-hVH_1_3 / LC GG-05-hVK_3_11 (antibody, V domains shown)
VH: B1 VH with R44G, R72A
VL: B2 VL
notes: human constant region
Turning to B33, the ELISA data is 0.631.

B34: CD81K04 HC JA_GG-15-hVH_1_3 / LC GG-06-hVK_1_39 (antibody, V domains shown)
VH: B1 VH with R72A
VL: B4 VL
notes: human constant region
Turning to B34, the ELISA data came to 0.079.

B35: CD81K04 HC JA_GG-16-hVH_1_3 / LC GG-06-hVK_1_39 (antibody, V domains shown)
VH: B1 VH with R44G, R72A
VL: B4 VL
notes: human constant region
In the case of B35, the ELISA data was determined as 0.08.

B36: CD81K04 HC JA_GG-16-hVH_1_3 / LC JA_GG-07-hVK_7_3 (antibody, V domains shown)
VH: B1 VH with R44G, R72A
VL: B3 VL
notes: human constant region
B36 came in with an ELISA data of 0.161.

B37: CD81K04 HC K04_JA_GG-17-hVH_1_3 / LC GG-02-hVK_4_1 (antibody, V domains shown)
VH: B1 VH with A58T, N61S, G62Q, K65Q, R72A
VL: B1 VL with K53Y, L58R, E93Q
notes: human constant region
In turn, B37 came in with an ELISA data of 0.709.

B38: CD81K04 HC GG-03-hVH_1_69 / LC JA_GG-07-hVK_7_3 (antibody, V domains shown)
VH: B1 VH with A16S, R44G, N61A, G62Q, K65Q, R72A, T74E, A76T
VL: B3 VL
notes: human constant region
Take B38: the ELISA data was 0.091.

B39: CD81K04 HC JA_GG-14-hVH_1_3 / LC JA_GG-07-hVK_7_3 (antibody, V domains shown)
VH: B1 VH with R44G, V68A, R72A
VL: B3 VL
notes: human constant region
B39 displayed an ELISA data of 0.154.

B40: CD81K04 HC GG-03-hVH_1_69 / LC GG-06-hVK_1_39 (antibody, V domains shown)
VH: B1 VH with A16S, R44G, N61A, G62Q, K65Q, R72A, T74E, A76T
VL: B4 VL
notes: human constant region
The molecule B40 gave an ELISA data of 0.064.

B41: CD81K04 HC GG-05-hVH_1_18 / LC JA_GG-07-hVK_7_3 (antibody, V domains shown)
VH: B1 VH with R44G, N61A, G62Q, F64L, K65Q, I70M, R72T, A76T, S84R, E89D
VL: B3 VL
notes: human constant region
On to B41, for which the ELISA data was found to be 0.14.
